According to article PMC12275187, “CpgD is a phosphoglycerate cytidylyltransferase required for ceramide diphosphoglycerate synthesis” (The Journal of Biological Chemistry, 2025):

T1: CpgD (CCNA_01210) (Caulobacter vibrioides, UniProt A0A0H3C7D9)
T1 construct: expressed in E. coli ER2566; primers encode N-terminus MQPVKT, C-terminus EAEAV
T1 sequence (A0A0H3C7D9 1-253): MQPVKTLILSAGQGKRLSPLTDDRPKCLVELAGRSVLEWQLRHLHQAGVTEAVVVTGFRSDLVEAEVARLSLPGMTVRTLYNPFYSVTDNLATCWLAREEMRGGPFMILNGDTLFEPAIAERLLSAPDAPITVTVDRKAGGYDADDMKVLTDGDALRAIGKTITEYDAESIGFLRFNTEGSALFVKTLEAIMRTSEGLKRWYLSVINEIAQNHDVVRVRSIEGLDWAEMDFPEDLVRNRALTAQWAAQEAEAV

B1: CpgD (CCNA_01210) (Caulobacter vibrioides NA1000) (protein)
chain: T1 sequence (A0A0H3C7D9 1-253)
notes: expressed in E. coli ER2566; primers encode N-terminus MQPVKT, C-terminus EAEAV

Columns and labels:
CpgD (CCNA_01210) = target: T1, CpgD (CCNA_01210); experiment: thermal shift assay (GloMelt dye); format: binding; conditions: 10 mM nucleotide, 50 mM MgCl2, 50 mM HEPES pH 7.5; Tm change only in figure
[1] = substrate: O=C(O)[C@@H](CO)OP(=O)(O)O; experiment: HPAEC quantification of CDP-glycerate; format: biochemical, Caulobacter vibrioides; conditions: 10 mM CTP, 50 mM MgCl2, 50 mM HEPES pH 7.5, 45 min; pH 7.5
Excerpt: (§1) HPAEC quantification of CDP-glycerate on CpgD (CCNA_01210)

[2] = substrate: Nc1ccn([C@@H]2O[C@H](COP(=O)(O)OP(=O)(O)OP(=O)(O)O)[C@@H](O)[C@H]2O)c(=O)n1; experiment: HPAEC quantification of CDP-glycerate; format: biochemical, Caulobacter vibrioides
Excerpt: as §1

[3] = substrate: O=C(O)[C@H](CO)OP(=O)(O)O; experiment: HPAEC quantification of CDP-glycerate; format: biochemical, Caulobacter vibrioides; conditions: 10 mM CTP, 50 mM MgCl2, 50 mM HEPES pH 7.5, 45 min; pH 7.5
Excerpt: as §1

[4] = substrate: O=C(O)[C@H](O)COP(=O)(O)O; experiment: HPAEC quantification of CDP-glycerate; format: biochemical, Caulobacter vibrioides; conditions: 10 mM CTP, 50 mM MgCl2, 50 mM Tris pH 8.0, 3.5 h; pH 8.0
Excerpt: as §1

[5] = 10 mM 3-phosphoglycerate, 50 mM MgCl2, 50 mM Tris pH 8.0, 3.5 h, Michaelis-Menten fit, pH 8.0
[6] = 10 mM D-2-phosphoglycerate, 50 mM MgCl2, 50 mM HEPES pH 7.5, 45 min, Hill fit, cooperative (Hill coefficient 2.5), pH 7.5

| Molecule | Tm (CpgD (CCNA_01210)) | Km [1] [mM] | Vmax [1] [µmol/min/mg] | Km [2, 5] [mM] | Vmax [2, 5] [µmol/min/mg] | K0.5 [2, 6] [mM] | Vmax [2, 6] [µmol/min/mg] | Km [3] [mM] | Vmax [3] [µmol/min/mg] | Km [4] [mM] | Vmax [4] [µmol/min/mg] |
| --- | --- | --- | --- | --- | --- | --- | --- | --- | --- | --- | --- |
| Nc1ncnc2c1ncn2[C@@H]1O[C@H](COP(=O)(O)OP(=O)(O)OP(=O)(O)O)[C@@H](O)[C@H]1O [ATP] | we consistently measured a lower melting temperature in the presence of ATP | – | – | – | – | – | – | – | – | – | – |
| Nc1ccn([C@@H]2O[C@H](COP(=O)(O)OP(=O)(O)OP(=O)(O)O)[C@@H](O)[C@H]2O)c(=O)n1 [CTP] | increase in the melting temperature of the protein was only observed upon addition of CTP | – | – | – | – | – | – | – | – | – | – |
| B1 | – | 0.84 ± 0.16 | 3.2 | 4.8 ± 0.9 | 0.4 | 6.4 ± 0.8 | 3.6 | 3.1 ± 0.6 | 1.5 | 10.9 ± 0.7 | 0.72 |
